The results in this text go back to patent publication US20180244769A1 (Ablynx, published 2018).

For experiment [1], the target named is human P2X7 (hP2X7) (human) (UniProt Q99572). Put plainly: cell-based or functional assay.
Experiment [2] has the same target. Put plainly: flow cytometry, HEK cells co-transfected with GFP and hP2X7, bound antibody detected with Alexa647 anti-mouse IgG; other quadrants: UL 72, LL 26, LR 0.5. In general terms: A flow cytometer gives signals particle by particle.
Experiment [3] has as its target T1, rat P2X7 (rP2X7) (Rattus norvegicus, UniProt Q64663 1-595).
T1 sequence: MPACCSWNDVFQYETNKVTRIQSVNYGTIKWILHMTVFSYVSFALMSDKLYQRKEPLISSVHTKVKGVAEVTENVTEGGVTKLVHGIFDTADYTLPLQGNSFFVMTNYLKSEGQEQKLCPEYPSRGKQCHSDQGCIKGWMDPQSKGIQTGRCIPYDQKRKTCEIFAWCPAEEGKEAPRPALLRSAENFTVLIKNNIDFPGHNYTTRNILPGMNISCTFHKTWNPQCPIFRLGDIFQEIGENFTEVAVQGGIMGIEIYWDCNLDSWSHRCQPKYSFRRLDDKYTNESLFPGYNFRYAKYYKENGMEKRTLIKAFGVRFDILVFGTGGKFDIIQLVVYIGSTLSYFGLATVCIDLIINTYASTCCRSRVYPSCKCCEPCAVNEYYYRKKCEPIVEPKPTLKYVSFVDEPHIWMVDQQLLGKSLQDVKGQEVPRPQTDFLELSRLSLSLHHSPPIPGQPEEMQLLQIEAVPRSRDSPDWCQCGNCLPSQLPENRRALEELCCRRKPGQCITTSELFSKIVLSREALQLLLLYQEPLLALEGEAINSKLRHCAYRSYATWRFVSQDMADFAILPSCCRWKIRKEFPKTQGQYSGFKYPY
The experiment is described as follows: flow cytometry, HEK cells co-transfected with GFP and rP2X7, detection with Alexa647 anti-mouse IgG. The text has this: (§1) In order to verify the specificity of the selected Nbs and to determine whether the Nbs would bind also to mouse P2X7 or rat P2X7, HEK cells were co-transfected with expression constructs for GFP and either hP2X7, mP2X7, or rP2X7. Twenty four hours post transfection cells were stained with Nb-Fc fusion proteins or mAb L4 before FACS analyses (FIG. 3). […] By comparison, previously described Nbs 13A7 and 14D5 (WO 2010/070145) recognize mP2X7, but not hP2X7 or rP2X7, mAb L4 recognizes hP2X7 and rP2X7, but not mP2X7.

Experiment [4] deals with human P2X7 (hP2X7) (human) (UniProt Q99572). The experiment is described as follows: flow cytometry of whole blood of one donor, gate on lymphocytes, Alexa647 conjugate with anti-CD4; unblocked = pre-incubated with control 1067-Fc.
The target is the same in experiment [5]. Put plainly: flow cytometry of whole blood of one donor, gate on lymphocytes, Alexa647 conjugate with anti-CD4; unblocked = pre-incubated with control 1067-Fc; lower quadrants 23 and 19.
Experiment [6] has the same target. The experiment is described as follows: flow cytometry of whole blood of one donor, gate on lymphocytes, Alexa647 conjugate with anti-CD4; blocked = pre-incubated with excess unlabelled Nb-Fc (legend: 3 ug each of 1c113-Fc and 3c23-Fc); lower quadrants 44 and 55.
Experiment [7] addresses T2, mouse P2X7 (mP2X7) (mus musculus, UniProt Q9Z1M0 1-595).
T2 construct: Also used here for endogenous P2X7 on Yac-1 cells, primary mouse lymphocytes and macrophages
T2 chain: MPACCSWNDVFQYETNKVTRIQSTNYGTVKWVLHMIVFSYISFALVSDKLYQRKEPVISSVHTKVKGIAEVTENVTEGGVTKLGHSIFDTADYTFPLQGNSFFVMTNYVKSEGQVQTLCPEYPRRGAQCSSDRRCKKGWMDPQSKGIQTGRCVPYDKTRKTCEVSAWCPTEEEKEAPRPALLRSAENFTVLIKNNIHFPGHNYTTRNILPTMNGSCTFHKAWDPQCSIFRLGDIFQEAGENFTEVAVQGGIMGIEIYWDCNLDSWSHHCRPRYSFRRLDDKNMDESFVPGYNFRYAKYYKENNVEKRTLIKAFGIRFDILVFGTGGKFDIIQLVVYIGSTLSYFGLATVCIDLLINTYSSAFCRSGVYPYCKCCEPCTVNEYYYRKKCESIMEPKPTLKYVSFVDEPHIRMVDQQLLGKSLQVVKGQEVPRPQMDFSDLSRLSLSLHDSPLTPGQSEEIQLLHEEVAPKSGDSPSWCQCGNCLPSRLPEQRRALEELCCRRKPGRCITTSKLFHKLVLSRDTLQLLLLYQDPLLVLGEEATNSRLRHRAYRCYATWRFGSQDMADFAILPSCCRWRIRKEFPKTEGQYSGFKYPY
The experiment is described as follows: flow cytometry, HEK cells co-transfected with GFP and mP2X7, detection with Alexa647 anti-mouse IgG.
Text: as §1

Experiment [8] addresses human P2X7 (hP2X7) (human) (UniProt Q99572). Put plainly: flow cytometry, HEK cells co-transfected with GFP and hP2X7, bound antibody detected with Alexa647 anti-mouse IgG; other quadrants: UL 0.7, LL 12, LR 15.
The target is the same in experiment [9]. The experiment is described as follows: flow cytometry, HEK cells co-transfected with GFP and hP2X7, bound antibody detected with Alexa647 anti-mouse IgG; other quadrants: UL 71, LL 27, LR 0.5.
Experiment [10] has the same target. The experiment is described as follows: flow cytometry, HEK cells co-transfected with GFP and hP2X7, bound antibody detected with Alexa647 anti-mouse IgG; other quadrants: UL 0.8, LL 12, LR 15.
For experiment [11] the target is unchanged. Put plainly: flow cytometry of whole blood of one donor, gate on lymphocytes, Alexa647 conjugate with anti-CD4; unblocked = pre-incubated with control 1067-Fc; lower quadrants 24 and 19.
The target is the same in experiment [12]. The experiment is described as follows: flow cytometry of whole blood of one donor, gate on lymphocytes, Alexa647 conjugate with anti-CD4; blocked = pre-incubated with excess unlabelled Nb-Fc (legend: 3 ug each of 1c113-Fc and 3c23-Fc); lower quadrants 44 and 54.
Experiment [13] shares this target. The experiment is described as follows: flow cytometry, HEK cells co-transfected with GFP and hP2X7, bound antibody detected with Alexa647 anti-mouse IgG; other quadrants: UL 1.5, LL 16, LR 11.

Sequence of human P2X7 (hP2X7) (human) (Q99572 whole entry): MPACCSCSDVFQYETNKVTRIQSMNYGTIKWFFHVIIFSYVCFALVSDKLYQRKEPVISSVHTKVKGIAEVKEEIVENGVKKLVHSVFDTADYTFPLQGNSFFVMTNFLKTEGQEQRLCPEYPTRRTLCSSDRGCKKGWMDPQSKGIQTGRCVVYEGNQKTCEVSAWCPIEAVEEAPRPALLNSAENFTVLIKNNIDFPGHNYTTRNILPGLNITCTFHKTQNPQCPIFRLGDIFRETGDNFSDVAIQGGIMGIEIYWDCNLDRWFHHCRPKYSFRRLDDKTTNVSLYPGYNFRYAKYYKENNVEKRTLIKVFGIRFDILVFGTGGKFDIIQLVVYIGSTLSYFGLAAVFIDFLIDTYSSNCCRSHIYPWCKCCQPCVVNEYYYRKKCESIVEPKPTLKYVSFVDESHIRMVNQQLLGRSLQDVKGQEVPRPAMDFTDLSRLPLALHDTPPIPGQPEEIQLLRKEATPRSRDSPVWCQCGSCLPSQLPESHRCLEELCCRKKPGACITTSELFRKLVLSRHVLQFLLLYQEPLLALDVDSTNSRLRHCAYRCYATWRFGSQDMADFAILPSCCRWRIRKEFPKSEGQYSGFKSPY

B1: Nb 3c23 (monovalent) (VHH)
VHH: EVQLVESGGGLVQAGGSLRLSCAASGRTFRHYAMGWFRQAPGKEREFVAAISSYGSTDYGDSVKGRFTISRDDAKNTVPLQMNSLKPEDTAVYYCAAADETLGAVPNFRLHEKYEYEYWGQGTQVTVSS
Turning to B1, in [1], the IC50 [nM], blockade of L-selectin (CD62L) shedding in transfected HEK cells, 4 mM ATP was determined as 2.7 nM and the IC50 [ng/ml], blockade of L-selectin (CD62L) shedding in transfected HEK cells, 4 mM ATP came to 40 ng/mL.

B2: 14D5-Fc (Nb-Fc fusion protein of Nb 14D5) (Fc fusion)
chain: KVQLVESGGGLVQAGGSLRLSCAASGSPISSYAMGWYRQAPGKPRELVARIYTGGTAWYEDSVKGRFTISRDNAQNTVYLQMNSLKSEDTAVYYCHGRVRYDYWGQGTQVTVSS
notes: Nb-Fc fusion; not shown: Fc part
As to B2, the % of cells in the GFP+ / anti-mIgG A647+ quadrant (upper right) in experiment [2] was found to be 1.2%. For the same molecule, in [3], the binding result was “no binding”.

B3: 3c23-Fc (Nb 3c23 fused to the Fc-domain of mouse IgG1) (Fc fusion)
chain: EVQLVESGGGLVQAGGSLRLSCAASGRTFRHYAMGWFRQAPGKEREFVAAISSYGSTDYGDSVKGRFTISRDDAKNTVPLQMNSLKPEDTAVYYCAAADETLGAVPNFRLHEKYEYEYWGQGTQVTVSSA
notes: Bivalent N-terminally FLAG-tagged Nb-Fc fusion protein made in HEK cells; Used unconjugated or conjugated to Alexa647; also called WD3c23Fc; Nb 3c23-Fc; not shown: N-terminal FLAG tag; Fc-domain of mouse IgG1
In experiment [4], B3 came in with an MFI (AF647) of CD4+ lymphocytes, unblocked of 17 and an MFI (AF647) of CD4- lymphocytes, unblocked of 14. For the same molecule, in experiment [5], the % of lymphocytes in the CD4+ / AF647+ quadrant (upper right), unblocked was found to be 35% and the % of lymphocytes in the CD4- / AF647+ quadrant (upper left), unblocked came out at 24%. Also, the binding result in experiment [3] was “no binding”. Moreover, in [6], the % of lymphocytes in the CD4+ / AF647+ quadrant (upper right), blocked amounted to 0.4% and the % of lymphocytes in the CD4- / AF647+ quadrant (upper left), blocked is 0.7%. Also, in experiment [7], the binding result was “no binding”. The same molecule returned a % of cells in the GFP+ / anti-mIgG A647+ quadrant (upper right) in experiment [8] of 72%. In addition, in [1], the IC50 [nM], blockade of L-selectin (CD62L) shedding in transfected HEK cells, 4 mM ATP amounted to 0.6 nM; the IC50 [ng/ml], blockade of L-selectin (CD62L) shedding in transfected HEK cells, 4 mM ATP stood at 50 ng/mL; the fold enhanced potency to block activation of P2X7, Nb-Fc fusion protein against its monovalent counterpart fell in the range of 5 to 20 fold; the molar inhibition potency relative to monovalent 3c23 (CD62L shedding) was 4 fold.

B4: Nb 1c81 (monovalent) (VHH)
VHH: EVQLVESGGKLVQAGGSLRLSCSASGRTFSFSTSTMGWFRQAPGKELEFVAAIDWSDFNTYYADSVKGRFTISRHNPRNSVYLQLNSLKPEDTAVYYCAAHSETRGGTRYFDRPSLYNYWGQGTQVTVSS
Regarding B4, in experiment [1], the IC50 [nM], blockade of L-selectin (CD62L) shedding in transfected HEK cells, 4 mM ATP is 100 nM and the IC50 [ng/ml], blockade of L-selectin (CD62L) shedding in transfected HEK cells, 4 mM ATP worked out at 1500 ng/mL.

B5: Nb 1c113 (monovalent) (VHH)
VHH: EVQLVESGGGLVQPGGSLTLSCAASGIAFNYYSMSWHRQAPGKQRTLVADISPGGHTEYEDSVKGRFTISRDNFKNTMTLHMNSLKPEDTAVYFCAARLRFEVSSNYWGQGTQVTVSS
In experiment [1], B5 gave an IC50 [nM], blockade of L-selectin (CD62L) shedding in transfected HEK cells, 4 mM ATP of more than 185 nM and an IC50 [ng/ml], blockade of L-selectin (CD62L) shedding in transfected HEK cells, 4 mM ATP of more than 2800 ng/mL.

B6: 13A7-Fc (Nb-Fc fusion protein of Nb 13A7) (Fc fusion)
chain: EVQLVESGGGLVQPGESLRLSCTASRFMLDYYDIGWFRQAPGKEREGVSCRFTNDGSTAYADSVKGRFTISRDIVKHTVYLQMNSLQPEDTAVYYCAAGPLTKRRQCVPGDFSMDFWGEGTLVTVSS
notes: Nb-Fc fusion; also called fluorochrome-conjugated Nb 13A7; not shown: Fc part
As for B6, the binding result in [3] was “no binding”. This molecule also came in with a % of cells in the GFP+ / anti-mIgG A647+ quadrant (upper right) in [9] of 1.2%.

B7: 1c113-Fc (pME 1c113-mIgG1Fc_LSF) (Fc fusion)
chain: DYKDDDDKRSMAEVQLVESGGGLVQPGGSLTLSCAASGIAFNYYSMSWHRQAPGKQRTLVADISPGGHTEYEDSVKGRFTISRDNFKNTMTLHMNSLKPEDTAVYFCAARLRFEVSSNYWGQGTQVTVSSLEPRDCGCKPCICTVPEVSSEVSSVFIFPPKPKDVLLISLFPKVTCVVVDISKDDPEVQFSWFVDDVEVHTAQTQPREEQFNSTFRSVSELPIMHQDWLNGKEFKCRVNSAAFPAPIEKTISKTKGRPKAPQVYTIPPPKEQMAKDKVSLTCMITDFFPEDITVEWQWNGQPAENYKNTQPIMDTDGSYFVYSKLNVQKSNWEAGNTFTCSVLHEGLHNHHTEKSLSHSPGKGK
notes: Used unconjugated or conjugated to Alexa647; also called WD1c113Fc; Nb 1c113-Fc
In experiment [4], B7 returned an MFI (AF647) of CD4+ lymphocytes, unblocked of 17 and an MFI (AF647) of CD4- lymphocytes, unblocked of 14. Also, the binding result in experiment [3] was “no binding”. Moreover, in experiment [10], the % of cells in the GFP+ / anti-mIgG A647+ quadrant (upper right) was determined as 72%. Also, the binding result in experiment [7] is “no binding”. For the same molecule, in [11], the % of lymphocytes in the CD4+ / AF647+ quadrant (upper right), unblocked turned out to be 35% and the % of lymphocytes in the CD4- / AF647+ quadrant (upper left), unblocked was 22%. Moreover, in [12], the % of lymphocytes in the CD4+ / AF647+ quadrant (upper right), blocked was determined as 0.7% and the % of lymphocytes in the CD4- / AF647+ quadrant (upper left), blocked is 0.8%. Besides, in experiment [1], the IC50 [nM], blockade of L-selectin (CD62L) shedding in transfected HEK cells, 4 mM ATP was more than 35 nM and the IC50 [ng/ml], blockade of L-selectin (CD62L) shedding in transfected HEK cells, 4 mM ATP was more than 2800 ng/mL.

B8: 1c81-Fc (Nb 1c81 fused to the Fc-domain of mouse IgG1) (Fc fusion, not shown: small tags and cut ends; a dimerising Fc or GST)
chain: EVQLVESGGKLVQAGGSLRLSCSASGRTFSFSTSTMGWFRQAPGKELEFVAAIDWSDFNTYYADSVKGRFTISRHNPRNSVYLQLNSLKPEDTAVYYCAAHSETRGGTRYFDRPSLYNYWGQGTQVTVSSA
In [13], B8 had a % of cells in the GFP+ / anti-mIgG A647+ quadrant (upper right) of 71%. In experiment [1], the IC50 [nM], blockade of L-selectin (CD62L) shedding in transfected HEK cells, 4 mM ATP is 5 nM; the IC50 [ng/ml], blockade of L-selectin (CD62L) shedding in transfected HEK cells, 4 mM ATP is 400 ng/mL; the fold enhanced potency to block activation of P2X7, Nb-Fc fusion protein against its monovalent counterpart lay in the range of 5 to 20 fold; the molar inhibition potency relative to monovalent 1c81 (CD62L shedding) was 20 fold.
